In PMC9352680, “A comprehensive thermodynamic model for RNA binding by the Saccharomyces cerevisiae Pumilio protein PUF4”:

T1: PUF4 RNA-binding domain (Saccharomyces cerevisiae, UniProt P25339 537-888)
T1 sequence: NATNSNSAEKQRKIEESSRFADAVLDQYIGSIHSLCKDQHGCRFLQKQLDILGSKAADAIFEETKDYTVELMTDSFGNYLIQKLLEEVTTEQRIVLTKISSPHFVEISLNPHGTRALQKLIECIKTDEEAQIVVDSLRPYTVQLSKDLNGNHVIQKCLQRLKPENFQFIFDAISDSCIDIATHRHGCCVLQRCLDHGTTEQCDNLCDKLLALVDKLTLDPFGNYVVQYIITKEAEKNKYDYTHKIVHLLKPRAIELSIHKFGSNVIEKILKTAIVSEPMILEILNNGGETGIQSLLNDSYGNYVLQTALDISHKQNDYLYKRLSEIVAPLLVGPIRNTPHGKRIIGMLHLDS


What follows are binders tested against T1, PUF4 RNA-binding domain (assay: Mg; RNA-MaP; 20 mM Na-HEPES pH 7.4, 30 mM KOAc, 0.75 mM MgCl2, 0.1% Tween-20, 5% glycerol, 0.1 mg/mL BSA, 2 mM DTT; 25 C; 0.0125-409.6 nM protein). Conditions: tags: N-His6-TEV cleaved; C-SNAP kept, Cy3B-labelled; label: tethered on chip by stalled RNA polymerase.

Binder | Kd [nM]
UCUCUUGUUGUAUUAUUAUCUCUCUU (ssRNA) [Id_ii_S1_P5E.2_K5.1_C5.2_[C-2G]_H5.1_A5.1_F5.1_T5.2_[A12C]] | 6.74
UCUCUUGCUGUAUUAUUAUUUCUCUU (ssRNA) [Id_ii_S1_P5E.2_K5.1_C5.2_[C-2G]_[T-1C]_H5.1_A5.1_F5.1_T5.2_[A12T]] | 10.5
UCUCUUUGUACACUAUCUCUU (ssRNA) [Ib_S1_P4E.1_K4.1_C4.1_H4.1_A4.1_[T5C]_[T7C]_F4.1_T4.1] | 0.824
UCUCUUCUACACUAUUAUUUCUCUU (ssRNA) [Id_ii_S1_P4E.4_K4.3_C4.2_H4.3_A4.1_F4.1_T4.2_[G10T]] | > 2300
UCUCUUUGUGUAUUAUUAUCUCUCUU (ssRNA) [Id_ii_S1_P5E.2_K5.1_C5.2_[C-2T]_[T-1G]_H5.1_A5.1_F5.1_T5.2_[A12C]] | 3.72
UCUCUUUAUGUAUUAUUAUCUCUCUU (ssRNA) [Id_ii_S1_P5E.2_K5.1_C5.2_[C-2T]_[T-1A]_H5.1_A5.1_F5.1_T5.2_[A12C]] | 8.06
UCUCUUUGUGUAUUAUUAUUUCUCUU (ssRNA) [Id_ii_S1_P5E.2_K5.1_C5.2_[C-2T]_[T-1G]_H5.1_A5.1_F5.1_T5.2_[A12T]] | 3.95
UCUCUUGUUGUAUUAUUAAUUCUCUU (ssRNA) [Id_ii_S1_P5E.2_K5.1_C5.2_[C-2G]_H5.1_A5.1_F5.1_T5.2_[T11A]_[A12T]] | 9.79
UCUCUUUGUGUAUUAUUAAUUCUCUU (ssRNA) [Id_ii_S1_P5E.2_K5.1_C5.2_[C-2T]_[T-1G]_H5.1_A5.1_F5.1_T5.2_[T11A]_[A12T]] | 4.68
UCUCUUUUUGUAUUAUUAAGUCUCUU (ssRNA) [Id_ii_S1_P5E.2_K5.1_C5.2_[C-2T]_H5.1_A5.1_F5.1_T5.2_[T11A]_[A12G]] | 17
UCUCUUGCUGUAUUAUUAUCUCUCUU (ssRNA) [Id_ii_S1_P5E.2_K5.1_C5.2_[C-2G]_[T-1C]_H5.1_A5.1_F5.1_T5.2_[A12C]] | 11.7
UCUCUUUCUGUAUUAUUAUCUCUCUU (ssRNA) [Id_ii_S1_P5E.2_K5.1_C5.2_[C-2T]_[T-1C]_H5.1_A5.1_F5.1_T5.2_[A12C]] | 4.88
UCUCUUGUUGUAUUAUUAAAUCUCUU (ssRNA) [Id_ii_S1_P5E.2_K5.1_C5.2_[C-2G]_H5.1_A5.1_F5.1_T5.2_[T11A]] | 11.7
UCUCUUUGUAAAGUAUCUCUU (ssRNA) [Ic_S1_P4E.1_K4.1_C4.1_H4.1_A4.1_[T5A]_[T7G]_F4.1_T4.1] | 7.21
UCUCUUAUUGUAUUAUUAUCUCUCUU (ssRNA) [Id_ii_S1_P5E.2_K5.1_C5.2_[C-2A]_H5.1_A5.1_F5.1_T5.2_[A12C]] | 6.61
UCUCUUCUACACUAUUAUCUCUCUU (ssRNA) [Id_ii_S1_P4E.4_K4.3_C4.2_H4.3_A4.1_F4.1_T4.2_[G10T]_[T11C]] | 1700
UCUCUUUGUAAAAUAUCUCUU (ssRNA) [Ic_S1_P4E.1_K4.1_C4.1_H4.1_A4.1_[T5A]_[T7A]_F4.1_T4.1] | 3.38
UCUCUUACUGUAUUAUUAAUUCUCUU (ssRNA) [Id_ii_S1_P5E.2_K5.1_C5.2_[C-2A]_[T-1C]_H5.1_A5.1_F5.1_T5.2_[T11A]_[A12T]] | 12.5
UCUCUUCGUGUAUUAUUAGUUCUCUU (ssRNA) [Id_ii_S1_P5E.2_K5.1_C5.2_[T-1G]_H5.1_A5.1_F5.1_T5.2_[T11G]_[A12T]] | 3.02
UCUCUUCGUGUAUUAUUAAGUCUCUU (ssRNA) [Id_ii_S1_P5E.2_K5.1_C5.2_[T-1G]_H5.1_A5.1_F5.1_T5.2_[T11A]_[A12G]] | 14.8
UCUCUUUCUGUAUUAUUAUGUCUCUU (ssRNA) [Id_ii_S1_P5E.2_K5.1_C5.2_[C-2T]_[T-1C]_H5.1_A5.1_F5.1_T5.2_[A12G]] | 5.28

Binder | Kd [nM]
UCUCUUCAACACUAUUAAUUCUCUU (ssRNA) [Id_ii_S1_P4E.4_K4.3_C4.2_[T-1A]_H4.3_A4.1_F4.1_T4.2_[G10A]] | > 2300
UCUCUUAUUGUAUUAUUAGCUCUCUU (ssRNA) [Id_ii_S1_P5E.2_K5.1_C5.2_[C-2A]_H5.1_A5.1_F5.1_T5.2_[T11G]_[A12C]] | 4.53
UCUCUUUGUAAUUUAUCUCUU (ssRNA) [Ic_S1_P4E.1_K4.1_C4.1_H4.1_A4.1_[T5A]_[A6T]_F4.1_T4.1] | 3.77
UCUCUUGUUGUAUUAUUAUUUCUCUU (ssRNA) [Id_ii_S1_P5E.2_K5.1_C5.2_[C-2G]_H5.1_A5.1_F5.1_T5.2_[A12T]] | 6.28
UCUCUUACUGUAUUAUUAAAUCUCUU (ssRNA) [Id_ii_S1_P5E.2_K5.1_C5.2_[C-2A]_[T-1C]_H5.1_A5.1_F5.1_T5.2_[T11A]] | 23.8
UCUCUUACUGUAUUAUUAUUUCUCUU (ssRNA) [Id_ii_S1_P5E.2_K5.1_C5.2_[C-2A]_[T-1C]_H5.1_A5.1_F5.1_T5.2_[A12T]] | 8.56
UCUCUUUUUGUAUUAUUAACUCUCUU (ssRNA) [Id_ii_S1_P5E.2_K5.1_C5.2_[C-2T]_H5.1_A5.1_F5.1_T5.2_[T11A]_[A12C]] | 8.08
UCUCUUAUUGUAUUAUUAACUCUCUU (ssRNA) [Id_ii_S1_P5E.2_K5.1_C5.2_[C-2A]_H5.1_A5.1_F5.1_T5.2_[T11A]_[A12C]] | 11.1
UCUCUUUCUGUAUUAUUAACUCUCUU (ssRNA) [Id_ii_S1_P5E.2_K5.1_C5.2_[C-2T]_[T-1C]_H5.1_A5.1_F5.1_T5.2_[T11A]_[A12C]] | 5.78
UCUCUUUGUAAACUAUCUCUU (ssRNA) [Ic_S1_P4E.1_K4.1_C4.1_H4.1_A4.1_[T5A]_[T7C]_F4.1_T4.1] | 2.01
UCUCUUUGUGUAUUAUUAGUUCUCUU (ssRNA) [Id_ii_S1_P5E.2_K5.1_C5.2_[C-2T]_[T-1G]_H5.1_A5.1_F5.1_T5.2_[T11G]_[A12T]] | 2.43
UCUCUUUUUGUAUUAUUAAUUCUCUU (ssRNA) [Id_ii_S1_P5E.2_K5.1_C5.2_[C-2T]_H5.1_A5.1_F5.1_T5.2_[T11A]_[A12T]] | 8.7
UCUCUUUUUGUAUUAUUAAAUCUCUU (ssRNA) [Id_ii_S1_P5E.2_K5.1_C5.2_[C-2T]_H5.1_A5.1_F5.1_T5.2_[T11A]] | 16.4
UCUCUUUUUGUAUUAUUAGCUCUCUU (ssRNA) [Id_ii_S1_P5E.2_K5.1_C5.2_[C-2T]_H5.1_A5.1_F5.1_T5.2_[T11G]_[A12C]] | 4.26
UCUCUUUAUGUAUUAUUAUUUCUCUU (ssRNA) [Id_ii_S1_P5E.2_K5.1_C5.2_[C-2T]_[T-1A]_H5.1_A5.1_F5.1_T5.2_[A12T]] | 7.85
UCUCUUCUACACUAUUAUAUCUCUU (ssRNA) [Id_ii_S1_P4E.4_K4.3_C4.2_H4.3_A4.1_F4.1_T4.2_[G10T]_[T11A]] | 965
UCUCUUAUUGUAUUAUUAUGUCUCUU (ssRNA) [Id_ii_S1_P5E.2_K5.1_C5.2_[C-2A]_H5.1_A5.1_F5.1_T5.2_[A12G]] | 10.1
UCUCUUUAUGUAUUAUUAAUUCUCUU (ssRNA) [Id_ii_S1_P5E.2_K5.1_C5.2_[C-2T]_[T-1A]_H5.1_A5.1_F5.1_T5.2_[T11A]_[A12T]] | 10.6
UCUCUUUGUACAAUAUCUCUU (ssRNA) [Ib_S1_P4E.1_K4.1_C4.1_H4.1_A4.1_[T5C]_[T7A]_F4.1_T4.1] | 1.29
UCUCUUUUUGUAUUAUUAUUUCUCUU (ssRNA) [Id_ii_S1_P5E.2_K5.1_C5.2_[C-2T]_H5.1_A5.1_F5.1_T5.2_[A12T]] | 10.2
UCUCUUUAUGUAUUAUUAGUUCUCUU (ssRNA) [Id_ii_S1_P5E.2_K5.1_C5.2_[C-2T]_[T-1A]_H5.1_A5.1_F5.1_T5.2_[T11G]_[A12T]] | 4.38

Binder | Kd [nM]
UCUCUUUAUGUAUUAUUAGCUCUCUU (ssRNA) [Id_ii_S1_P5E.2_K5.1_C5.2_[C-2T]_[T-1A]_H5.1_A5.1_F5.1_T5.2_[T11G]_[A12C]] | 4.56
UCUCUUUUUGUAUUAUUAUCUCUCUU (ssRNA) [Id_ii_S1_P5E.2_K5.1_C5.2_[C-2T]_H5.1_A5.1_F5.1_T5.2_[A12C]] | 5.34
UCUCUUUAUGUAUUAUUAAAUCUCUU (ssRNA) [Id_ii_S1_P5E.2_K5.1_C5.2_[C-2T]_[T-1A]_H5.1_A5.1_F5.1_T5.2_[T11A]] | 16.8
UCUCUUUAUGUAUUAUUAACUCUCUU (ssRNA) [Id_ii_S1_P5E.2_K5.1_C5.2_[C-2T]_[T-1A]_H5.1_A5.1_F5.1_T5.2_[T11A]_[A12C]] | 13.9
UCUCUUUGUAUUAAUAUCUCUU (ssRNA) [Ia_S1_P5E.1_K5.1_C5.1_H5.1_A5.1_F5.1_[T8A]_T5.1] | 9.4
UCUCUUCAACACUAUUAGUUCUCUU (ssRNA) [Id_ii_S1_P4E.4_K4.3_C4.2_[T-1A]_H4.3_A4.1_F4.1_T4.2] | > 2300
UCUCUUACUGUAUUAUUAUGUCUCUU (ssRNA) [Id_ii_S1_P5E.2_K5.1_C5.2_[C-2A]_[T-1C]_H5.1_A5.1_F5.1_T5.2_[A12G]] | 8.64
UCUCUUCGUGUAUUAUUAAUUCUCUU (ssRNA) [Id_ii_S1_P5E.2_K5.1_C5.2_[T-1G]_H5.1_A5.1_F5.1_T5.2_[T11A]_[A12T]] | 10.1
UCUCUUAUUGUAUUAUUAAAUCUCUU (ssRNA) [Id_ii_S1_P5E.2_K5.1_C5.2_[C-2A]_H5.1_A5.1_F5.1_T5.2_[T11A]] | 13.4
UCUCUUUCUGUAUUAUUAAAUCUCUU (ssRNA) [Id_ii_S1_P5E.2_K5.1_C5.2_[C-2T]_[T-1C]_H5.1_A5.1_F5.1_T5.2_[T11A]] | 8.35
UCUCUUCGUGUAUUAUUAACUCUCUU (ssRNA) [Id_ii_S1_P5E.2_K5.1_C5.2_[T-1G]_H5.1_A5.1_F5.1_T5.2_[T11A]_[A12C]] | 12.5
UCUCUUGCUGUAUUAUUAAUUCUCUU (ssRNA) [Id_ii_S1_P5E.2_K5.1_C5.2_[C-2G]_[T-1C]_H5.1_A5.1_F5.1_T5.2_[T11A]_[A12T]] | 21.6
UCUCUUUCUGUAUUAUUAAGUCUCUU (ssRNA) [Id_ii_S1_P5E.2_K5.1_C5.2_[C-2T]_[T-1C]_H5.1_A5.1_F5.1_T5.2_[T11A]_[A12G]] | 11.5
UCUCUUUCUGUAUUAUUAUUUCUCUU (ssRNA) [Id_ii_S1_P5E.2_K5.1_C5.2_[C-2T]_[T-1C]_H5.1_A5.1_F5.1_T5.2_[A12T]] | 5.27
UCUCUUGCUGUAUUAUUAACUCUCUU (ssRNA) [Id_ii_S1_P5E.2_K5.1_C5.2_[C-2G]_[T-1C]_H5.1_A5.1_F5.1_T5.2_[T11A]_[A12C]] | 15.2
UCUCUUACUGUAUUAUUAUCUCUCUU (ssRNA) [Id_ii_S1_P5E.2_K5.1_C5.2_[C-2A]_[T-1C]_H5.1_A5.1_F5.1_T5.2_[A12C]] | 9.38
UCUCUUUUUGUAUUAUUAGUUCUCUU (ssRNA) [Id_ii_S1_P5E.2_K5.1_C5.2_[C-2T]_H5.1_A5.1_F5.1_T5.2_[T11G]_[A12T]] | 3.49
UCUCUUAUUGUAUUAUUAUUUCUCUU (ssRNA) [Id_ii_S1_P5E.2_K5.1_C5.2_[C-2A]_H5.1_A5.1_F5.1_T5.2_[A12T]] | 5.93
UCUCUUUUUGUAUUAUUAUGUCUCUU (ssRNA) [Id_ii_S1_P5E.2_K5.1_C5.2_[C-2T]_H5.1_A5.1_F5.1_T5.2_[A12G]] | 7.22
UCUCUUUGUGUAUUAUUAACUCUCUU (ssRNA) [Id_ii_S1_P5E.2_K5.1_C5.2_[C-2T]_[T-1G]_H5.1_A5.1_F5.1_T5.2_[T11A]_[A12C]] | 3.86
